This note sets out measurements from patent KR20210043475A (dated 2021).

Test [1] has as its target T1, PD-L1-his (human, UniProt Q9NZQ7 19-238, limits assumed).
T1 construct: also called 인간 PD-L1; not shown: his tag
Description: SPR (Biacore 8K), PD-L1-his immobilised on CM5 chip, binder as analyte. (SPR reads the build-up and loss of mass on a sensor chip optically.)

Another test addresses T2, CD3 on T cells (UniProt P07766 23-207).
T2 construct: whole, on cells; also called CD3 + Jurkat T 세포; Jurkat T 세포의 CD3
Description: flow cytometry, apparent affinity on CD3 + Jurkat T cells. Background: In flow cytometry, cells or beads pass a laser one at a time.

Test [2] addresses T3, PD-L1 on cells (human, UniProt Q9NZQ7 19-290).
T3 construct: whole, on cells; the tumour lines are human lines; The cell line of each result is named under assay or readout; also called PD-L1 + Karpas-299 세포; PD-L1 + HCC827
Put plainly: flow cytometry, apparent affinity on PD-L1 + Karpas-299 cells.

The target in test [3] is T3, PD-L1 on cells. Description: cell-based or functional assay.
Test [4] has as its target T1, PD-L1-his. Description: SPR (Biacore 8K); ratio of KD against YBL-007 on PD-L1.
For test [5], the target named is T1, PD-L1-his. Put plainly: SPR (Biacore 8K), PD-L1-his immobilised on CM5 chip, binder as analyte; monovalent stem Fv.

T3 sequence (Q9NZQ7 19-290): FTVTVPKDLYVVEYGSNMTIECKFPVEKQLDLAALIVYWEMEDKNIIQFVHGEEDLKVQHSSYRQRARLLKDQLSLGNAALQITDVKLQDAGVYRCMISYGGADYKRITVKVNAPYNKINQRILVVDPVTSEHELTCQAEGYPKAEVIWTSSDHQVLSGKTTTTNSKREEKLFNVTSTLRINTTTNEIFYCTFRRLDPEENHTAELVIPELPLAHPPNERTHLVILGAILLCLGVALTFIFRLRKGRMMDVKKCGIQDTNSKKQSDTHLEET
T1 sequence (Q9NZQ7 19-238 limits assumed): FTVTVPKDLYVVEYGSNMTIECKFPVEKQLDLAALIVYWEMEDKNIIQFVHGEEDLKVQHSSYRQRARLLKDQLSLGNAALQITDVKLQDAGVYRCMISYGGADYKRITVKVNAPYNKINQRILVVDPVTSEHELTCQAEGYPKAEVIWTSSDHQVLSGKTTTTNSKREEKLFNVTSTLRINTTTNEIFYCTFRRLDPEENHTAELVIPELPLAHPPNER
T2 sequence (P07766 23-207): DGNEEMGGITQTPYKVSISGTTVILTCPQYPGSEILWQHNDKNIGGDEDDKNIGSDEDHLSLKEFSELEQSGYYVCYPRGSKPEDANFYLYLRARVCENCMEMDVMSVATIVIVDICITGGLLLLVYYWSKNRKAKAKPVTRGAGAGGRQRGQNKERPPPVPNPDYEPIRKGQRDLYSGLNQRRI

B1: YBL-007 (항-PD-L1 모 항체) (antibody, V domains shown)
VH: QMQLVQSGAEVKKPGSSVKVSCKASGGTFSSYAISWVRQAPGQGLEWMGRIIPILGIANYAQKFQGRVTITADKSTSTAYMELSSLRSEDTAVYYCAKPRDGYNLVAFDIWGQGTMVTVSS
VL: QLVLTQPPSVSGAPGQRVTISCTGSSSNIGAGYDVHWYQQLPGAAPKLLIYGDINRPSGVPDRFSGSKSGISASLAITGLQAEDEADYYCQSYDSSLSGGVFGGGTKLTVLR
notes: Parent IgG; also called anti-PD-L1 parent antibody (Y-Biologics Inc.)
In the case of B1, the Kd in the test with PD-L1-his [1] stood at 0.646 nM.

B2: ACE-05 (항-PD-L1 Fab × 항-CD3 Fv) (bispecific antibody)
heavy 1: not shown
heavy 2: not shown
light: QLVLTQPPSVSGAPGQRVTISCTGSSSNIGAGYDVHWYQQLPGAAPKLLIYGDINRPSGVPDRFSGSKSGISASLAITGLQAEDEADYYCQSYDSSLSGGVFGGGTKLTVLRSVAAPSVFIFPPSDEQLKSGTASVVCLLNNFYPREAKVQWKVDNALQSGNSQESVTEQDSKDSTYSLSSTLTLSKADYEKHKVYACEVTHQGLSSPVTKSFNRGEC
notes: also called ALiCE; ACE-05-VH / ACE-05-VL / ACE-05-LC
As to B2, the Kd in the test with PD-L1-his [1] was 0.678 nM. The Kd with CD3 on T cells came to 52.4 nM. Moreover, the Kd in the test with PD-L1 on cells [2] was found to be 0.0314 nM. Also, in the test with PD-L1 on cells [3], the “T 세포 활성화 효율 (EC50); PD-1/PD-L1 blockade bioassay, NFAT-luciferase, PD-L1/aAPC CHO-K1 + PD-1 Jurkat” value was 0.21 nM; the “T 세포 활성화 효율, fold against BiTE-05; PD-1/PD-L1 blockade bioassay” value turned out to be 5 fold; the “표적 사멸 활성 (EC50), LDH release, PD-L1 + HCC827 cells with effector cells (PBMC)” value was 1.97 pM; the “표적 사멸 활성 (EC50), LDH release, PD-L1 + MDA-MB-231 cells with effector cells (CD3 + T cells)” value was 8.37 pM.

B3: ACE-31 (항-CD3 Fab × 항-PD-L1 Fv) (bispecific antibody)
heavy 1: EVQLQQSGPELVKPGPSMKISCKASGYSFTGYTMNWVKQSHGKNLEWMGLINPYKGVSTYNQKFKDKATLTVDKSSSTAYMELLSLTSEDSAVYYCARSGYYGDSDWYFDVWGQGTTLTVFSASTKGPSVFPLAPSSKSTSGGTAALGCLVKDYFPEPVTVSWNSGALTSGVHTFPAVLQSSGLYSLSSVVTVPSSSLGTQTYICNVNHKPSNTKVDKKVEPKSCDKTHTCPPCPPCPAPELLGGPGGGGSGGGGSQMQLVQSGAEVKKPGSSVKVSCKASGGTFSSYAISWVRQAPGQGLEWMGRIIPILGIANYAQKFQGRVTITADKSTSTAYMELSSLRSEDTAVYYCAKPRDGYNLVAFDIWGQGTMVTVSS
heavy 2: EVQLQQSGPELVKPGPSMKISCKASGYSFTGYTMNWVKQSHGKNLEWMGLINPYKGVSTYNQKFKDKATLTVDKSSSTAYMELLSLTSEDSAVYYCARSGYYGDSDWYFDVWGQGTTLTVFSASTKGPSVFPLAPSSKSTSGGTAALGCLVKDYFPEPVTVSWNSGALTSGVHTFPAVLQSSGLYSLSSVVTVPSSSLGTQTYICNVNHKPSNTKVDKKVEPKSCDKTHTCPPCPPCPAPELLGGPGGGGSQLVLTQPPSVSGAPGQRVTISCTGSSSNIGAGYDVHWYQQLPGAAPKLLIYGDINRPSGVPDRFSGSKSGISASLAITGLQAEDEADYYCQSYDSSLSGGVFGGGTKLTVLR
light: DIQMTQTTSSLSASLGDRVTISCRASQDIRNYLNWYQQKPDGTVKLLIYYTSRLHSGVPSKFSGSGSGTDYSLTISNLEQEDIATYFCQQGNTLPWTFAGGTKLEIKRTVAAPSVFIFPPSDEQLKSGTASVVCLLNNFYPREAKVQWKVDNALQSGNSQESVTEQDSKDSTYSLSSTLTLSKADYEKHKVYACEVTHQGLSSPVTKSFNRGEC
notes: also called ACE-31-VH / ACE-31-VL / ACE-31-LC
As for B3, the “fold lower binding affinity than the parent antibody YBL-007” value with PD-L1-his [4] was 40 fold. Besides, the Kd with PD-L1-his [5] worked out at 27.2 nM; in the test with CD3 on T cells it was 0.856 nM; in the test with PD-L1 on cells [2], 20.6 nM.
